Test results taken from paper PMC10132440.

How the values were obtained:
[1] = biological target: PN45545 TCR-CD3, strep-tagged, detergent-solubilized (SPR reagent) (humanized VelociT mouse | not stated) (UniProt P07766); assay: SPR; conditions: peptide-MHC
[2] = biological target: PN45428 TCR-CD3, strep-tagged, detergent-solubilized (SPR reagent) (humanized VelociT mouse | not stated) (UniProt P07766); assay: SPR; conditions: peptide-MHC

| Substance | Kd [1] | Kd [2] |
| --- | --- | --- |
| single-chain disulfide-stabilized MAGEA4 (230-239) pMHC (from UniProt P61769 21-119) | 6.1 µM | – |
| single-chain disulfide-stabilized MAGEA8 (232-241) pMHC (from UniProt P61769 21-119) | 420 µM | 260 µM |
